T1: LANA DBD wild-type (KSHV (HHV-8), UniProt Q9DUN0 825-967)
T1 sequence: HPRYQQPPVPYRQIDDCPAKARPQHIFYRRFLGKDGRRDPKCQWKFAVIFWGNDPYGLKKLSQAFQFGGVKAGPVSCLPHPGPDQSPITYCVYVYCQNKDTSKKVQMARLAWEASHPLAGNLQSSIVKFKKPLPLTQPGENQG

B1: His-SMT3-BRD2 ET domain, short form (BRD2 633-714) (domain or fragment, UniProt P25440 633-714, looked up)
chain: SEEEEESRPMSYDEKRQLSLDINKLPGEKLGRVVHIIQAREPSLRDSNPEEIEIDFETLKPSTLRELERYVLSCLRKKPRKP
notes: also called BRD2S
B2: LBS1 21-mer FP probe (dsDNA)
DNA 1: AGCGGCCCCATGCCCGGGCGG
DNA 2: CCGCCCGGGCATGGGGCCGCT
B3: LANA C-terminal DNA binding domain (residues 1011-1153), wild type (domain or fragment)
chain: T1 sequence
notes: source: E. coli, purified (Ni-NTA, tag cleaved with ULP1, second Ni-NTA, Superdex 75)

What was measured:
[1] = biological target: B3; test: pull-down; His-SMT3-BRD ET domain held on Ni-NTA resin; untagged LANADBD or EBNA1DBD added; 200 mM NaCl, 20 mM HEPES, 5 mM BME, pH 8.0; washed with 10 CV; eluted with 300 mM imidazole; settings: both partners purified
LANA DBD wild-type = biological target: T1, LANA DBD wild-type; test: fluorescence polarization; cooperative, Hill h > 1; Kd only in figure; FP: 200 mM NaCl, 20 mM HEPES, 1 mM DTT, (protein stock pH 7.4), 1 ug/mL BSA, 0.1 ug/mL poly(dA:dT), 0.001% Tween 20, 1 nM probe, room temperature 30 min; EMSA:; settings: protein: recombinant; tags: His-SMT3 removed by ULP1; chain copies: 2; label: 5' 6-carboxyfluorescein; blunt
[2] = biological target: the molecule itself; test: cross-linking; EGS, with a 1.2 molar excess of LBS1 DNA (unlabeled 21-mer); 200 mM NaCl, 20 mM HEPES pH 7.4, 1 mM DTT, room temperature; step: dimers and tetramers to higher oligomers
[3] = biological target: T2, His-SMT3-BRD2 ET domain, long form (BRD2 633-801) (UniProt P25440 633-801); test: pull-down; His-SMT3-BRD ET domain held on Ni-NTA resin; untagged LANADBD or EBNA1DBD added; 200 mM NaCl, 20 mM HEPES, 5 mM BME, pH 8.0; washed with 10 CV; eluted with 300 mM imidazole; settings: both partners purified
T2 construct: also called BRD2L

[4] = biological target: the molecule itself; test: cross-linking; EGS, without DNA; 200 mM NaCl, 20 mM HEPES pH 7.4, 1 mM DTT, room temperature; samples boiled and run on gels

B1
binding result [1]: binds

B2
binding result (LANA DBD wild-type): binds

B3
stoichiometry N [2]: ~10
binding result [3]: binds
stoichiometry N [4]: 4

From PMC3798644, “Molecular Basis for Oligomeric-DNA Binding and Episome Maintenance by KSHV LANA” (PLoS Pathogens, 2013)
